Test results as given in patent publication US20080027145A1, “Therapeutic Molecules and Methods for Generating and/or Selecting Same” (priority 2004, published 2008).

How the values were obtained:
[1] = molecular target: GST Mcl-1 (Mus musculus, UniProt P97287); assay: GST pull-down with recombinant BH3-only proteins; type: binding
[2] = molecular target: T1, A1 ΔC20 (Mus musculus, UniProt Q07440); assay: A1 ΔC20
T1 construct: mouse A1 (Acc. no. NP_033872; residues 1-152); GST (N, cleaved yes); made in house
T1 sequence (Q07440 1-152, stated change not applied): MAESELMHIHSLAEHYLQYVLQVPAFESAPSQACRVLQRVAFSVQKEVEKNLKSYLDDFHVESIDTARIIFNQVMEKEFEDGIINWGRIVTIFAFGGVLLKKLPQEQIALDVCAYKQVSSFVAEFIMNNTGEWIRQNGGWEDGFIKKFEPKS
Protocol: (§1) Table printed on a drawing sheet, FIGURE 2A
Head of the field: A1 ΔC20
(§2) The patent's description of the figure: FIG. 2 is a graphical representation showing pro-apoptotic BH3-only and pro-survival Bcl-2-like proteins have distinctive interactions. (A) Using competitive binding assays, the IC50 (nM) for the indicated interactions were determined. The results shown are from representative experiments; the variation observed in multiple experiments was less than two-fold (using different chips or protein batches). (B) Relative binding affinities of interactions (tabulated in A) were inversely plotted. The BH3 binding profiles of pro-survival proteins are shown. In (C), the sequences of human Bcl-2 (residues 93-202), human Bcl-xL (86-195), human Bcl-w (42-151), mouse Mcl-1 (190-300) and mouse A1 (33-148) that form their BH3 binding grooves (α-helices 2 to 8; Hinds et al., EMBO J 22:1497-1507, 2003) were compared and presented as a phylogenetic tree. Color reproductions are available from the patentees on request.
(§3) First copying reader's note: The table itself prints no unit; IC50 (nM) is printed only on the axis of panel B of the same figure, which plots the same values.
Where the first naming reader finds the target: head: A1 ΔC20

[3] = molecular target: T2, FLAG-tagged Bcl-2 (Homo sapiens, UniProt P10415); assay: Co-immunoprecipitation in transfected 293T cells; type: binding; conditions: tagged full-length proteins
T2 construct: expressed in transfected cells; host or cells: HEK293T
T2 sequence (P10415 whole entry): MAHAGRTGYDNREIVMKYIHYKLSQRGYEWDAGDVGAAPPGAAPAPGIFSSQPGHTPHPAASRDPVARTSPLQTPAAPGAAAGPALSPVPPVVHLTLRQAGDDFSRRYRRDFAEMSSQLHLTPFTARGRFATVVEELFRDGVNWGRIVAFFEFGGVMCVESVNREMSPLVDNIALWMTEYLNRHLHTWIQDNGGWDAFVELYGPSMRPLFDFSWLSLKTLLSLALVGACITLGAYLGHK
Description: (§4) Equivalent ^35S-labeled lysates harvested from 293T cells were immunoprecipitated with antibodies to the HA, FLAG (FL) or control (C) tags.
(§5) The maintenance, transfection and metabolic labeling of the human embryonic kidney (HEK) 293T cells with ^35S-methionine/cysteine (NEN) as well as co-immunoprecipitation have been described (Huang et al., Supra; Moriishi et al., Proc Natl Acad Sci USA 96:9683-9688, 1999; O'Conner et al., Supra). Briefly, equivalent TCA-precipitable lysates were immunoprecipiated using the mouse monoclonal antibodies to HA (HA.11; CRP), FLAG (M2; Sigma) and control Glu-Glu (CRP) tags. The proteins were resolved by SDS:PAGE, transferred onto nitrocellulose membranes and detected by fluorography (Amplify; Amersham Biosciences).
(§6) To verify the in vitro findings, interactions of selected pairs of the full-length N-terminally tagged proteins were investigated in mammalian cells by co-immunoprecipitation. […] The cells were metabolically labeled with ^35S-methionine/cysteine to permit semi-quantitative assessment of any interaction between co-associating radiolabeled proteins.
(§7) To verify the in vitro findings, selected pairs of the full-length N-terminally tagged proteins associated in mammalian cells were investigated by co-immunoprecipitation. […] The cells were metabolically labeled with ^35S-methionine/cysteine to permit semi-quantitative assessment of any interaction between the labeled proteins or interaction was gauged by the more sensitive western blotting.

[4] = molecular target: T3, FLAG-tagged Bcl-xL (Homo sapiens, UniProt Q07817); assay: Co-immunoprecipitation in transfected 293T cells; type: binding; conditions: tagged full-length proteins
T3 construct: expressed in transfected cells; host or cells: HEK293T
T3 sequence (Q07817 whole entry): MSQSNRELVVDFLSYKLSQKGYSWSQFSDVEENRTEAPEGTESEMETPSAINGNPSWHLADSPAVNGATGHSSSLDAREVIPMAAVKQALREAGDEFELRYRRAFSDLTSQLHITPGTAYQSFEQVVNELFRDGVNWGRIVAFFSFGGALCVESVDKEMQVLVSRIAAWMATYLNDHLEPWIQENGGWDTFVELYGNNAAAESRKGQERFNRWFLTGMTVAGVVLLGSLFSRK
Description: as §4, §5, §6, §7

[5] = molecular target: T4, FLAG-tagged Mcl-1 (Mus musculus, UniProt P97287); assay: Co-immunoprecipitation in transfected 293T cells; type: binding; conditions: tagged full-length proteins
T4 construct: expressed in transfected cells; host or cells: HEK293T
T4 sequence (P97287 whole entry): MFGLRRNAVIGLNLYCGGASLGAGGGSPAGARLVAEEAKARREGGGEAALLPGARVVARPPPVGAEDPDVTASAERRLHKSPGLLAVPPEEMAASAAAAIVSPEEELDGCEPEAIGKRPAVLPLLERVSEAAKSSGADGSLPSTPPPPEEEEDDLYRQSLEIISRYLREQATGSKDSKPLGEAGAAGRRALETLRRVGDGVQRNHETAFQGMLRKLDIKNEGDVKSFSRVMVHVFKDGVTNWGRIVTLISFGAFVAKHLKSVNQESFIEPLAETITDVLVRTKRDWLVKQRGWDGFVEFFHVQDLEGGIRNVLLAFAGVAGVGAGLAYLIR
Description: as §4, §5, §6, §7

[6] = tested on: mouse embryonic fibroblasts (MEFs); assay: Killing of MEFs after retroviral expression, viability 24 hours after infection; type: cell-based; conditions: for killing of MEFs: retroviral expression, 24 hours after infection; for killing of MEFs on co-expression with the NoxaBH3: co-expressed with GFP-Bims NoxaBH3, 24 hours
Protocol: FIG. 7 is a graphical representation showing that BH3-only proteins that bind selective targets have weak killing activity. (A) The affinities of BH3-only peptides for pro-survival proteins (tabulated in FIG. 3A) were inversely plotted to facilitate comparison of the patterns of BH3 binding. […] Immortalized 3T9 MEFs were infected with retroviruses expressing only GFP (control), or one of the BH3-only proteins and GFP. The viability of the infected (GFP^+ve) cells was determined by PI exclusion 24 hours after infection. The histograms represent means±1SD of at least 3 experiments. […] The filter was probed with a rat monoclonal anti-FLAG antibody. *Degradation product of Mcl-1. […] Viability of MEFs infected with retroviruses encoding the indicated proteins (GFP^+ve) was analyzed 24 hours after infection. The histograms represent means±1SD of at least 3 experiments. (E) Long-term survival of MEFs infected with BH3 expressing retroviruses. One hundred retrovirally-infected cells were plated and the absolute number of GFP^+ve colonies formed after 6 days scored. […] The data represent the average number of GFP^+ve colonies formed±1SD from at least 3 experiments. To assess the biological relevance of the selective binding, retroviral delivery was used to compare the ability of different BH3-only proteins to kill wild-type mouse embryonic fibroblasts (MEFs). To monitor expression of the introduced gene, a vector (pMIG) in which its expression is coupled via an internal ribosomal entry site (IRES) to that of green fluorescent protein (GFP) was used (Van Parijs et al., Immunity 11:281-288, 1999). The cells were efficiently infected (>90%) and the introduced BH3-only proteins were comparably expressed. Viability of the infected (GFP^+ve) cells was scored 24 hours after infection (FIGS. 7A, 7B) and in long-term colony assays (FIG. 7E). […] Thus, the neutralization of Mcl-1 by Noxa should be complemented by co-expression of a BadBH3 to neutralize Bcl-2 and Bcl-xL in MEFs (FIG. 8A).

[7] = molecular target: T5, Bcl-2 ΔC22 (Homo sapiens, UniProt P10415); assay: Bcl-2 ΔC22
T5 construct: Human Bcl-2 (Acc. no. NP_000624; residues 1-217); made in house
T5 sequence (P10415 1-217, stated change not applied): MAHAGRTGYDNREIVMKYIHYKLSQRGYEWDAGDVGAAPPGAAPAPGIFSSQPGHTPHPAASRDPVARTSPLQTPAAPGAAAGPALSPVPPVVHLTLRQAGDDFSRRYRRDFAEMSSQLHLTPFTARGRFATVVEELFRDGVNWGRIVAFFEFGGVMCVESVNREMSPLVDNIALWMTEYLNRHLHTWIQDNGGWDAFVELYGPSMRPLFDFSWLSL
Protocol: as §1
Head of the field: Bcl-2 ΔC22
as §2, with “In (C), the sequences of human Bcl-2 (residues 93-202), human Bcl-xL (86-195), human Bcl-w (42-151), mouse Mcl-1 (190-300) and mouse A1 (33-148) that form their BH3 binding grooves (α-helices 2 to 8; Hinds et al., EMBO J 22:1497-1507, 2003) were compared and presented as a phylogenetic tree.” left out
as §3
Where the first naming reader finds the target: head: Bcl-2 ΔC22

[8] = molecular target: T6, Mcl-1 ΔN151 ΔC23 (Mus musculus, UniProt P97287); assay: Mcl-1 ΔN151 ΔC23
T6 construct: mouse Mcl-1 (Acc. no. NP_031588; residues 152-308); GST (N, cleaved yes); made in house
T6 sequence (P97287 152-308, stated change not applied): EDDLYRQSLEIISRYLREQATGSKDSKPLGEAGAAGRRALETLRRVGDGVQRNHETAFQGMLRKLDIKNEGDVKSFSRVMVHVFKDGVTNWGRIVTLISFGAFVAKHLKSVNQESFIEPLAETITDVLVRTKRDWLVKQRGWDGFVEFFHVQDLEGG
Protocol: as §1
Head of the field: Mcl-1 ΔN151 ΔC23
as §2, §3
Where the first naming reader finds the target: head: Mcl-1 ΔN151 ΔC23

[9] = molecular target: T7, Bcl-xL ΔC24 (Homo sapiens, UniProt Q07817); assay: Bcl-xL ΔC24
T7 construct: Human Bcl-xL (Acc. no. NP_612815; residues 1-209); GST (N, cleaved yes); made in house
T7 sequence (Q07817 1-209, stated change not applied): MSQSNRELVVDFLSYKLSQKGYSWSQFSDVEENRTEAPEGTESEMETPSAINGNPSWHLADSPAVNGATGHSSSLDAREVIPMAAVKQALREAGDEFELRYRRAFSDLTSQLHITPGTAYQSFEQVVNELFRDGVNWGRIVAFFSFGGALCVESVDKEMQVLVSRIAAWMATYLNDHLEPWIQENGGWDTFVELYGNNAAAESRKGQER
Protocol: as §1
Head of the field: Bcl-xL ΔC24
as §2, §3
Where the first naming reader finds the target: head: Bcl-xL ΔC24

[10] = molecular target: T8, Bcl-w ΔC29 (Homo sapiens, UniProt Q92843, A128E/C29S); assay: Bcl-w ΔC29
T8 construct: human Bcl-w (Acc. no. NP_004041; residues 1-164; C29S A128E); made in house
T8 sequence (Q92843 1-164 C29S/A128E): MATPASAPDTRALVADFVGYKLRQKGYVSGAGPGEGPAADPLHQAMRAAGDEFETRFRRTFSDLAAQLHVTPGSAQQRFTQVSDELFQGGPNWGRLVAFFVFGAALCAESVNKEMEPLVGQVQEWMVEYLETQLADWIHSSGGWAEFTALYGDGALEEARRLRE
Protocol: as §1, §2, §3

[11] = tested on: mouse embryonic fibroblasts (MEFs); assay: Long-term colony assay of retrovirally infected MEFs; type: cell-based; conditions: colonies after 6 days
Protocol: FIG. 7 is a graphical representation showing that BH3-only proteins that bind selective targets have weak killing activity. (A) The affinities of BH3-only peptides for pro-survival proteins (tabulated in FIG. 3A) were inversely plotted to facilitate comparison of the patterns of BH3 binding. […] Immortalized 3T9 MEFs were infected with retroviruses expressing only GFP (control), or one of the BH3-only proteins and GFP. The viability of the infected (GFP^+ve) cells was determined by PI exclusion 24 hours after infection. The histograms represent means±1SD of at least 3 experiments. […] The filter was probed with a rat monoclonal anti-FLAG antibody. *Degradation product of Mcl-1. […] Viability of MEFs infected with retroviruses encoding the indicated proteins (GFP^+ve) was analyzed 24 hours after infection. The histograms represent means±1SD of at least 3 experiments. (E) Long-term survival of MEFs infected with BH3 expressing retroviruses. One hundred retrovirally-infected cells were plated and the absolute number of GFP^+ve colonies formed after 6 days scored. […] The data represent the average number of GFP^+ve colonies formed±1SD from at least 3 experiments. […] Viability of the infected (GFP^+ve) cells was scored 24 hours after infection (FIGS. 7A, 7B) and in long-term colony assays (FIG. 7E).

Chain of GST Mcl-1 (P97287 whole entry): as the sequence (P97287 whole entry) above

Molecule | binding of GST Mcl-1 [1] | IC50 [2] | interaction with Bcl-2 by co-immunoprecipitation [3] | interaction with Bcl-xL by co-immunoprecipitation [4] | interaction with Mcl-1 by co-immunoprecipitation [5] | killing of MEFs [6] | IC50 [7] | IC50 [8] | IC50 [9] | IC50 [10] | long-term survival, GFP+ve colonies [11] | killing of MEFs on co-expression with the NoxaBH3 [6] | killing of MEFs on co-expression with the BadBH3 ([6]; co-expressed with GFP-Bims BadBH3, 24 hours)
Bad: full-length mouse BH3-only protein Bad expressed in cells, recombinant in GST pull-down (protein, UniProt Q61337 1-204, looked up, full-length, full-length mouse BH3-only protein Bad expressed in cells, recombinant in GST pull-down) MGTPKQPSLAPAHALGLRKSDPGIRSLGSDAGGRRWRPAAQSMFQIPEFEPSEQEDASATDRGLGPSLTEDQPGPYLAPGLLGSNIHQQGRAATNSHHGGAGAMETRSRHSSYPAGTEEDEGMEEELSPFRGRSRSAPPNLWAAQRYGRELRRMSDEFEGSFKGLPRPKSAGTATQMRQSAGWTRIIQSWWDRNLGKGGSTPSQ | not | 15000 nM | bound well | bound well | not appreciably | much less potent killers | 16 nM | > 100000 nM | 5.3 nM | 30 nM |  |  | 
Bik: full-length human BH3-only protein Bik expressed in cells (protein, UniProt Q13323 1-160, looked up, full-length) MSEVRPLSRDILMETLLYEQLLEPPTMEVLGMTDSEEDLDPMEDFDSLECMEGSDALALRLACIGDEMDVSLRAPRLAQLSEVAMHSLGLAFIYDQTEDIRDVLRSFMDGFTTLKENIMRFWRSPNPGSWVSCEQVLLALLLLLALLLPLLSGGLHLLLK |  | 58 nM |  | to a greater extent than Bcl-2 or Mcl-1 |  | much less potent killers |  |  |  |  | modest effects | potently enhanced | 
Noxa: full-length BH3-only protein Noxa expressed in cells (mouse Noxa bearing two BH3s in co-immunoprecipitation) (protein, UniProt Q9JM54 1-103, looked up, full-length) MPGRKARRNAPVNPTRAELPPEFAAQLRKIGDKVYCTWSAPDITVVLAQMPGKSQKSRMRSPSPTRVPADLKDECAQLRRIGDKVNLRQKLLNLISKLFNLVT |  | 180 nM |  | did not | interacted only with Mcl-1 | much less potent killers | > 100000 nM |  | > 100000 nM | > 100000 nM | modest effects | did not augment | as much cell death as expression of Bims alone
Bmf: BH3-only protein Bmf, expressed from retrovirus in MEFs, recombinant in GST pull-down (protein, UniProt Q91ZE9 1-185, looked up) Bcl-2-modifying factor: MEPPQCVEELEDDVFQSEDGEPGTQPGGLLSADLFAQSQLDCPLSRLQLFPLTHCCGPGLRPISQEDKATQTLSPASPSQGVMLPCGVTEEPQRLFYGNAGYRLPLPASFPAGSPLGEQPPEGQFLQHRAEVQIARKLQCIADQFHRLHTQQHQQNRDRAWWQVFLFLQNLALNRQENREGVGPW | weakly | 1800 nM |  |  |  | much less potent killers |  | 1100 nM |  |  |  |  | 
